The subject of data set [1] is A366 peptide (STING peptide substrate with alanine at 366).
For data set [2], the system named is S366 peptide (STING peptide substrate with serine 366).

The values below come from patent publication US20130039933.

On to CK1δ, for which, in data set [1], the Activity (cpm) is 15600 cpm. Moreover, in data set [2], the Activity (cpm) amounted to 25200 cpm and the Fold induction is 1.62 fold.
For NEK6, in data set [1], the Activity (cpm) worked out at 5510 cpm. Further, in data set [2], the Activity (cpm) stood at 35600 cpm and the Fold induction stood at 6.45 fold.
On the same counts, the results for NEK7 are 3620 cpm, 19100 cpm and 5.28 fold.
In turn, PIM2 returned an Activity (cpm) in data set [1] of 1410 cpm. In data set [2], the Activity (cpm) is 3720 cpm and the Fold induction stood at 2.63 fold.
